What was measured:
hAng-2FD-mFc I-434-M = target: T1, hAng-2FD-mFc I-434-M (Homo sapiens, UniProt O15123, I434M); test: Ang-2FD-mFc point mutant binding experiment (SPR), I-434-M; details: I-434-M mutant captured; antibody/peptibody at 100 nM; 25° C.
T1 construct: made in house
From the text: (§1) To further characterize binding between hAng2 and anti-hAng2 mAbs of the invention, seven variant hAng2-FD-mFc proteins were generated, each containing a single point mutation. Amino acids selected for mutation were based on the difference in sequence between hAng-2 and hAng-1 in the region that interacts with hTie-2 (FIG. 1). In particular, amino acids within the fibrinogen-like domain (FD) of Ang-2 which are believed to interact with Tie-2 based on crystal structure analysis, but which differ from the corresponding amino acid in Ang-1, were individually mutated to the corresponding hAng-1 residue. The results of this example indicate the amino acid residues of hAng-2 with which the Ang-2 preferential binding antibodies interact.
(§2) In this experiment, each of the seven hAng-2FD-mFc mutant proteins were captured (˜147-283 RU) on an anti-mouse-Fc surface created through direct chemical coupling to a BIACORE™ chip. Then each Ang-2 antibody (or peptibody, as the case may be) at 100 nM was injected over the captured mFc-tagged hAng-2FD protein surface at a flowrate of 50 μl/min for 180 sec, and the dissociation of variant hAng2-FD-mFc and antibody was monitored in real time for 20 min at 25° C.

hAng-2FD-mFc Y-475-H = target: T2, hAng-2FD-mFc Y-475-H (Homo sapiens, UniProt O15123, Y475H); test: Ang-2FD-mFc point mutant binding experiment (SPR), Y-475-H; details: Y-475-H mutant captured; antibody/peptibody at 100 nM; 25° C.
T2 construct: made in house
From the text: as §1, §2

[1] = target: T3, hAng-2 WT binding to Tie-2 (Homo sapiens, UniProt O15123); test: ELISA blocking of full-length hAng-2 WT binding to hTie-2-mFc; format: biochemical
T3 construct: Full-length human Ang-2 or Ang-1 protein conjugated to 6× histidine tag (R&D Systems, Minneapolis, Minn.); purchased R&D Systems
T3 sequence (O15123 19-496): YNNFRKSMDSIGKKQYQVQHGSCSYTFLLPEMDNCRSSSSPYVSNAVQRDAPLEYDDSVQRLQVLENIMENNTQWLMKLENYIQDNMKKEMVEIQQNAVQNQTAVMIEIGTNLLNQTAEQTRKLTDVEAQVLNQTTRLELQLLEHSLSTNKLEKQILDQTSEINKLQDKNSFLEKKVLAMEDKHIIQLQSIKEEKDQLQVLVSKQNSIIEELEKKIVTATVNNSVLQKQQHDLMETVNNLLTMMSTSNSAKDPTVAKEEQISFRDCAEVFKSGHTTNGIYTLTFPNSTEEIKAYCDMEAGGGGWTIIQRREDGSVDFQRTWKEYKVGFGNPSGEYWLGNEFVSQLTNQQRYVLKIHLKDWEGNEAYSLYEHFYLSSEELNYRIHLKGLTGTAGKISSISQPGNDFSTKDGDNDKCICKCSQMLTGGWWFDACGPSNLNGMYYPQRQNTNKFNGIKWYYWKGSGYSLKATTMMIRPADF
Protocol: The ELISA experiments shown in this Example were conducted in a similar manner to the experiments of Example 5. Briefly, hTie-2-mFc (a chimeric construct consisting of human Tie-2 conjugated to mouse IgG; SEQ ID NO:525) was coated onto 96-well plates at a concentration of 2 μg/ml and incubated overnight followed by washing four times in wash buffer (PBS with 0.05% Tween-20). The plate was then blocked with PBS (Irvine Scientific, Santa Ana, Calif.) containing 0.5% BSA (Sigma-Aldrich Corp., St. Louis, Mo.) for one hour at room temperature. In a separate plate, purified anti-Ang-2 antibodies and control constructs, at a starting concentration of 300 nM, were serially diluted by a factor of three across the plate. Full-length human Ang-2 or Ang-1 protein conjugated to 6× histidine tag (R&D Systems, Minneapolis, Minn.) were added to a final concentration of 0.6 nM and incubated for one hour at room temperature. The antibody/antigen mixture was then added to the plate containing hTie-2-mFc and incubated for one hour at room temperature. Detection of Ang-2-His or Ang-1-His bound to hTie-2-mFc protein was determined with Horse-Radish Peroxidase (HRP) conjugated to a-Penta-His antibody (Qiagen, Valencia, Calif.) and developed by standard colorimetric response using tetramethylbenzidine (TMB) substrate (BD Biosciences, San Jose, Calif.). Absorbance was read at OD450 for 0.1 sec. […]

T1 sequence (O15123 with tags, fused parts or gaps I434M): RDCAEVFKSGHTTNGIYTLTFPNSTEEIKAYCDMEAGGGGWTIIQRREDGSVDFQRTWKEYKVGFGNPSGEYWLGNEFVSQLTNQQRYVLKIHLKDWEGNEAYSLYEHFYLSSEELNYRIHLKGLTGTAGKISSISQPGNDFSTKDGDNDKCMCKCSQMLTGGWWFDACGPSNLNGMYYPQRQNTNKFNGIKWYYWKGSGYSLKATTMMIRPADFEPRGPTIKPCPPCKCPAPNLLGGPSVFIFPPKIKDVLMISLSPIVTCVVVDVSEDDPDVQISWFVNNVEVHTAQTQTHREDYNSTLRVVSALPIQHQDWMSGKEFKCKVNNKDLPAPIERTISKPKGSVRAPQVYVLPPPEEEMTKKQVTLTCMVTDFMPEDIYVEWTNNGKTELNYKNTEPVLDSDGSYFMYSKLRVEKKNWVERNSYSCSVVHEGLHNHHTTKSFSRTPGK
T2 sequence (O15123 with tags, fused parts or gaps Y475H): as the sequence (O15123 with tags, fused parts or gaps I434M) above, with M153I, Y194H counted along it

Substance: H1H685P: human anti-Ang-2 antibody, HCVR/LCVR SEQ ID NOs 18/20; also referred to as mAb1 [Antibody H1H685P]
- Kd (hAng-2FD-mFc I-434-M): 0.0179 nM
- RU (hAng-2FD-mFc I-434-M): 235.95 RU
- Kd (hAng-2FD-mFc Y-475-H): 0.196 nM
- RU (hAng-2FD-mFc Y-475-H): 181.53 RU
- IC50 ([1]; 0.6 nM hAng-2-His, read-out: (1) Blocking hAng-2 WT to Tie-2 IC50): 0.129 nM
- (3) Fold Difference in hAng-1 Blocking IC50 Compared to h-Ang-2 Blocking IC50 ([1]; hAng-1 blocking IC50 divided by hAng-2 blocking IC50): >2318

— patent US9926369B2, “Methods for treating hepatocellular cancer by administering an anti-Ang-2 antibody” (Regeneron Pharmaceuticals, Inc., priority 2009, dated 2018)
